Measurements reported in the supplement of paper PMC11246515.
± gives the standard deviation of the averaged measurements.

Experiment: total protein half-life in vivo (active degradation + dilution); higher = more stable protein
[1] = E. coli NCM3722 delta-clpP delta-lon delta-hslV, growth: N-lim chemostat, doubling time 6 h
[2] = E. coli NCM3722 delta-clpP, growth: N-lim chemostat, doubling time 6 h
[3] = E. coli NCM3722 delta-hslV, growth: N-lim chemostat, doubling time 6 h
[4] = E. coli NCM3722 delta-lon, growth: N-lim chemostat, doubling time 6 h
[5] = E. coli NCM3722 delta-smpB, growth: N-lim chemostat, doubling time 6 h
[6] = wild type E. coli NCM3722, growth: C-lim chemostat, doubling time 6 h
[7] = wild type E. coli NCM3722, growth: C-lim chemostat, doubling time 12 h
[8] = wild type E. coli NCM3722, growth: N-lim chemostat, doubling time 6 h
[9] = wild type E. coli NCM3722, growth: N-lim chemostat, doubling time 12 h
[10] = wild type E. coli NCM3722, growth: P-lim chemostat, doubling time 6 h
[11] = wild type E. coli NCM3722, growth: P-lim chemostat, doubling time 12 h
[12] = wild type E. coli NCM3722, growth: C-lim chemostat, doubling time 3 h

Sequence	total protein half-life in vivo [1]	total protein half-life in vivo [2]	total protein half-life in vivo [3]	total protein half-life in vivo [4]	total protein half-life in vivo [5]	total protein half-life in vivo [6]	total protein half-life in vivo [7]	total protein half-life in vivo [8]	total protein half-life in vivo [9]	total protein half-life in vivo [10]	total protein half-life in vivo [11]	total protein half-life in vivo [12]
MADVHDKATRSKNMRAIATRDTAIEKRLASLLTGQGLAFRVQDASLPGRPDFVVDEYRCVIFTHGCFWHHHHCYLFKVPATRTEFWLEKIGKNVERDRRDISRLQELGWRVLIVWECALRGREKLTDEALTERLEEWICGEGASAQIDTQGIHLLA	5.56 h	4.58 ± 0.72 h	3.63 ± 0.22 h	3.67 h	4.35 ± 1.4 h	4.16 h	8.92 h	3.98 ± 0.43 h	5.45 ± 0.16 h	3.9 ± 0.41 h	9.27 ± 3.3 h	
MVRKGCNSLVRAEKILTHIAWVGMASYMELLNKFQYPKSSLLNLLNVMVDCGFLIKNKNGYYSLGIKNYELGCQALHRQNIFEVTKRPMQELSLKSGLVCHLGAMESISAIYLDKIESPDSVPTSKSWIGKKLELHITALGKALLAWKTREELDYFLEALTLTPHTRNTFTDKKLFLEELQKTRLRGWAIDNEESTYGAVCLSMPVFNMYNRVNYAISLSGDPVVYSGNKIDSYLELLRKCAEQISYGLGYRNENEHLRKGN						1.6 ± 0.092 h	2.7 ± 0.086 h		3.16 h			1.15 h
MNTRQLLSVGIDIGTTTTQVIFSRLELVNRAAVSQVPRYEFIKREISWQSPVFFTPVDKQGGLKEAELKTLILEQYHAAGIEPESVDSGAIIITGESAKTRNARPAVMALSQSLGDFVVASAGPHLESVIAGHGAGAQTLSEQRLCRVLNIDIGGGTANYALFDAGKISGTACLNVGGRLLETDSHGRVVYAHKPGQMIVDECFGAGTDARSLTGAQLVQVTRRMAELIVEVIDGTLSPLAQALMQTGLLPAGVTPEIITLSGGVGECYRHQPADPFCFADIGPLLATALHDHPRLREMNVQFPAQTVRATVIGAGAHTLSLSGSTIWLEGVQLPLRNLPVAIPIDETDLVGAWQQALIQLDLDPKTDAYVLALPASLPVRYAAVLTVINALVDFVARFPNPHPLLVVAGQDFGKALGMLLRPQLQQLPLAVIDEVIVRAGDYIDIGTPLFGGSVVPVTVKSLAFPS	5.67 h											
MSDDVALPLEFTDAAANKVKSLIADEDNPNLKLRVYITGGGCSGFQYGFTFDDQVNEGDMTIEKQGVGLVVDPMSLQYLVGGSVDYTEGLEGSRFIVTNPNAKSTCGCGSSFSI [P0ACC3]	5.22 ± 1.4 h		2.03 ± 0.4 h	3.62 ± 0.25 h	1.74 ± 0.059 h	2.89 ± 0.6 h	3.62 ± 0.69 h	1.71 ± 0.19 h	2.43 ± 0.26 h	2.4 ± 0.14 h	4.84 ± 0.42 h	1.62 ± 0.23 h
MQLNITGNNVEITEALREFVTAKFAKLEQYFDRINQVYVVLKVEKVTHTSDATLHVNGGEIHASAEGQDMYAAIDGLIDKLARQLTKHKDKLKQH [P0AFX0]	4.19 ± 0.41 h	3.97 ± 0.51 h	3.49 ± 0.22 h	4.08 ± 0.13 h	3.67 ± 0.043 h	4.75 ± 0.17 h	8.14 ± 0.53 h	3.39 ± 0.5 h	7.37 ± 0.34 h	4.21 ± 0.12 h	7.16 ± 0.65 h	2.51 ± 0.14 h
MKIRSQVGMVLNLDKCIGCHTCSVTCKNVWTSREGVEYAWFNNVETKPGQGFPTDWENQEKYKGGWIRKINGKLQPRMGNRAMLLGKIFANPHLPGIDDYYEPFDFDYQNLHTAPEGSKSQPIARPRSLITGERMAKIEKGPNWEDDLGGEFDKLAKDKNFDNIQKAMYSQFENTFMMYLPRLCEHCLNPACVATCPSGAIYKREEDGIVLIDQDKCRGWRMCITGCPYKKIYFNWKSGKSEKCIFCYPRIEAGQPTVCSETCVGRIRYLGVLLYDADAIERAASTENEKDLYQRQLDVFLDPNDPKVIEQAIKDGIPLSVIEAAQQSPVYKMAMEWKLALPLHPEYRTLPMVWYVPPLSPIQSAADAGELGSNGILPDVESLRIPVQYLANLLTAGDTKPVLRALKRMLAMRHYKRAETVDGKVDTRALEEVGLTEAQAQEMYRYLAIANYEDRFVVPSSHRELAREAFPEKNGCGFTFGDGCHGSDTKFNLFNSRRIDAIDVTSKTEPHP	5.82 ± 0.15 h	5.37 ± 0.84 h	5.9 ± 0.44 h	5.52 ± 0.8 h	5.81 ± 0.086 h	5.809 ± 0.058 h	12.8 h	5.29 h	11.3 ± 0.39 h	6 ± 0.39 h	10.8 ± 2.4 h	
MKRKTLPLLALVATTLFLIACDDRSDDLKAISKFKDLTPPRFSDVVSHQDDVSEEWSQVDYLSGPTLQVLRTRQSPDGCEDGSYYYLVDMQEKTVQPLMNALCIADNIKLEYQEVTDPYTKEKYFEYAHDGKLMGQLLIPSNPDNQE						1.71 h						
MFAVSSRRVLPGFTLSLGTSLLFVCLILLLPLSALVMQLAQMSWAQYWEVITNPQVVAAYKVTLLSAFVASIFNGVFGLLMAWILTRYRFPGRTLLDALMDLPFALPTAVAGLTLASLFSVNGFYGEWLAKFDIKVTYTWLGIAVAMAFTSIPFVVRTVQPVLEELGPEYEEAAETLGATRWQSFCKVVLPELSPALVAGVALSFTRSLGEFGAVIFIAGNIAWKTEVTSLMIFVRLQEFDYPAASAIASVILAASLLLLFSINTLQSRFGRRVVGH	7.77 h	6.57 h	4.7 h	4.58 h	2.4 h	4.2551 ± 0.0035 h	7.05 h	4.83 ± 0.59 h			10.2 ± 1.2 h	3.13 ± 0.25 h
